We go through five substances from US20110104789A1.

Test [1] concerns the target human EF-2 mutant (G717R) (human) (UniProt P13639). The experiment in a line: cell-based or functional assay.
In test [2] the target is human elongation factor 2 (EF-2) (human) (UniProt P13639). In words: cell-based or functional assay.

In the case of “DT-A(176) (from UniProt P00587 26-210) (enzyme)”, the GFP-positive cells relative to control vector pNL-GFP-RRE-SA, DT-resistant EF-2 mutant cell line 5H7 in test [1] fell in the range of 70 to 80%.
Take “DT-A(E148D) (from UniProt P00587 26-210) (enzyme)”: in test [1], the GFP-positive cells relative to control vector pNL-GFP-RRE-SA, DT-resistant EF-2 mutant cell line 5H7 was 70 to 80%.
On the same count and under the same terms, for “DT-A(E148S) (from UniProt P00587 26-210) (enzyme)” the value was 70 to 80%; for “DT-AΔN (from UniProt P00587 39-210) (enzyme)”, 70 to 80%.
Consider “wild type diphtheria toxin A chain (DT-A) (from UniProt P00587 26-210) (enzyme)”, for which, in test [1], the GFP-positive cells after cotransfection with pNL-DT-GFP-RRE-SA plus pCMVΔR8.2, EF-2 mutant clone 4H10 (FIG. 4A) came to 14%; the GFP-positive cells after cotransfection with pNL-DT-GFP-RRE-SA plus pCMVΔR8.2, EF-2 mutant clone 5E12 (FIG. 4A) stood at 9%; the GFP-positive cells after cotransfection with pNL-DT-GFP-RRE-SA plus pCMVΔR8.2, EF-2 mutant clone 5H7 (FIG. 4A) was 46%; the GFP-positive cells after cotransfection with pNL-DT-GFP-RRE-SA plus pCMVΔR8.2, EF-2 mutant clone AB1 (FIG. 4A) amounted to 24%. For the same substance, in test [1], the GFP-positive cells after cotransfection with pNL-DT-GFP-RRE-SA plus pCMVΔR8.2, EF-2 mutant clone CB2 (FIG. 4A) stood at 28%; the GFP-positive cells, 5H7 cells (FIG. 4B; control pNL-DT(R)-GFP-RRE-SA gave 64%) amounted to 54%; the share of 5H7 cells surviving the toxin was above 80%. In test [2], the GFP-positive cells after cotransfection with pNL-DT-GFP-RRE-SA plus pCMVΔR8.2, parental HEK293T cells (FIG. 4A) is 0% and the GFP-positive cells, HEK293T cells (FIG. 4B; control pNL-DT(R)-GFP-RRE-SA gave 43%) is 0%.
